As usually defined, the EC50 is the concentration giving half of the maximal effect.

These results are taken from patent US20220195015A1 (published 2022).

B1: C513 (antibody, V domains shown)
VH: EVQLLESGGGLVQPGGSLRLSCVASGFSFSTYAMSWVRQAPGQGLEWVSTITGTSIGTYYADSVKGRFTISRDNSKNTVFLQMKSLRAEDAAVYYCANHPLASGDEYYYYYMDVWGKGTTVTVSS
VL: EIVLTQSPDTLSLSPGERATLSCRASQSVHSKQLAWYQQKPGQAPRLLIYGASSRATGIPDRFSGSGSGTDFTLTISRLEPEDFAVYYCQQYGSIRALTFGGGTKVEIK
B2: C505 (antibody, V domains shown)
VH: EVQLLESGGGLVQPGGSLRLSCADSGFSFSTYGMSWVRQAPGKGLEWVSTISGSGDNTYHADSVKGRFTISRDNSKNTLYLQMNSLRAEDTAVYYCAKNIAEMSTFDDYFYYYGMDVWGQGTTVTVSS
VL: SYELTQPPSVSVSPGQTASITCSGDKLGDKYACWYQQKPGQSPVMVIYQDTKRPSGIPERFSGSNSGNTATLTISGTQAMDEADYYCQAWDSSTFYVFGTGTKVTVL
B3: C509 (antibody, V domains shown)
VH: QVQLQESGPGLVKPSGTLSLTCAVSGGSISSSNWWSWVRQPPGKGLEWIGEIYNSGSTNYNPSLKSRVTILVDKSKNQFSLKLSSVTAADTAVYYCAGSYSNYIGGVWFDPWGQGTLVTVSS
VL: EIVLTQSPATLSLSPGERATLSCRASQSVSTYLAWYQQKPGQAPRLLIYDASNRATGIPARFSGSGSGTDFTLTISSLEPEDFAVYYCQQRNNWLTFGGGTKVEIK
B4: C502 (antibody, V domains shown)
VH: QVQLVQSGAEVKKPGSSVKVSCKASGDTFSSHAINWVRQAPGQGLEWMGRSIPMLGVTTSAQKFKGRVTITADHSTSTVFMDLSSLRSDDTAIYYCARGVVGATPGSFDLWGQGTMVTVSS
VL: EIVMTQSPATLSVSPGKRATLSCRASQSVRSNLAWYQQRPGQAPRLLIYDAATRATGIPTRFSGSGSGTEFTLTISSLQSEDFAVYYCQQYDNGLTFGGGTKVEIK
B5: C516 (antibody, V domains shown)
VH: QVQLVQSGAEVKKPGSSVKVSCKASGGTFSSYAISWVRQAPGQGLEWMGRIIPMLVIATYARKFQGRVTITADKSTSTAYMELSSLRSEDTAVYYCARGVVAATPGNFDIWGQGTMVTVSS
VL: EIVMTQSPATLSVSPGERATLSCRASQSVSSNLAWYQQKPGQAPRLLIYGASTRATGIPARFSGSGSGTEFTLTISSLQSEDFAVYYCQQYNNGLTFGGGTKVEIK
B6: C507 (antibody, V domains shown)
VH: EVQLVESGGGVVQPGRSLRLSCAASGFTFSSYAIHWVRQAPGKGLEWVAVISFDGSNKYYRDSVKGRFTISRDNGKNTLYLQMNSLRAEDTAVYYCAKAALGYCTNGVCYCDNWGQGTLVTVSS
VL: NFMLTQPHSVSESPGKTVTISCTGSSGSIASNYVQWYQQRPGSAPTTVIYEDNQRPSGVPDRFSGSIDSSSNSASLSISGLKTEDEADYYCQSYDINSLWVFGGGTRLTVL
B7: C514 (antibody, V domains shown)
VH: EVQLVESGGGLVQPGGSLRLSCAASEFIVTRNYMSWVRQAPGKGLEWVSLIYPGGSTFYADSVKGRFTISRDNSKNTLFLHMNSLRAEDTAVYYCARDLAGRLDYWGQGTLVTVSS
VL: DIQMTQSPSSLSASVGDRVTITCQASQDINNFLNWYQQKPGKAPKLLIYDASNLETGVPSRFSGSGSGTDFTFTISSLQPEDIAIYYCQQYDSLSRLTFGGGTKVEIK
B8: C511 (antibody, V domains shown)
VH: EVQLVESGGGLVQPGGSLRLSCAATEITVSSNYMTWVRQAPGKGLEWVSVIYPGGSTFYADSVKGRFSISRDNSKNTLYLQMNSLRAEDTAVYYCARDLVVYGLDCWGQGTLVTVSS
VL: DIQLTQSPSFLSASVGDRVTITCRASQGISSYLAWYQQKPGKAPKLLIYAASTLQSGVPSRFSGSGSGTEFTLTISSLQPEDFATYYCQQLNTYPPPFGGGTKVEIK
B9: C515 (antibody, V domains shown)
VH: EVQLVESGGGLVQPGGSLRLSCAASGFIVSSNYMSWVRQAPGKGLEWVSILYSGGSTYYADSVKGRFTISRDNSKNTLYLQMNSLRAEDTAVYYCARDLVVYGADYWGQGTLVTVSS
VL: DIQLTQSPSFLSASVGDRVTITCRASQGISSYLAWYQQKPGKAPKLLIYAASTLQSGVPSRFSGSGSGTEFTLTISSLQPEDFATYYCQQLNSYPPPFGGGTKVEIK
B10: C506 (antibody, V domains shown)
VH: EVQLVESGGGLVQPGGSLRLSCAASGFTFSSYDMHWVRQGTGKGLEWVSVIGTAGDAYYPGSVKGRFTISRENAKNSLYLQMNSLRAGDTAVYYCARMVYDSSGFKGYFDLWGRGTLVTVSS
VL: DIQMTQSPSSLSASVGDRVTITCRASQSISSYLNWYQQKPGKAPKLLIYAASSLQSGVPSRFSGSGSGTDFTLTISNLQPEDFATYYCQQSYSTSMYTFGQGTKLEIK
B11: C512 (antibody, V domains shown)
VH: QVQLQESGPGLVKPSGTLSLTCAVSAGSISSNNWWSWVRQPPGKGLEWIGEVYHNGNINYNPSLKSRVTLSVDKSKNQFSLKLSSVTAADTAVYYCAKGGDRAMGPEYFDSWGQGTLVTVSS
VL: QSALTQPASVSGSPGQSITISCTGTSSDVGANNYVSWYQQHPGKAPKLMIYDVNERPSGVSNRFSGSKSGNTASLTISGLQTEDEADYYCSSFASSSTLLFGGGTKLTVL
B12: C504 (antibody, V domains shown)
VH: QVQLQESGPGLVKPSETLSLTCTVSGGSISSSYWNWIRQSPGKGLEWIGYIYYDGYTTFNPSLKSRVTISVDTSKNQFSLKLSSVTAADTAFYYCAAGLKGRSSSWYEYWGQGTLVTVSS
VL: DIQMTQSPSSLSASVGDRVTITCRASQSISSYLNWYQQKPGKAPKLLIYATSSLQSGVPSRFSGSGSGTDFTLTITSLQPEDFATYYCQQTYSSPHTFGQGTKLEIK
B13: C510 (antibody, V domains shown)
VH: QVQLQQWGAGLLKPSETLSRTCAVYGGSFSGYYWSWFRQSPGKGLEWIGEINHSGSTNYNPSLKNRVTISVDTSKNQFSLMLSSVTAADTAVYYCARGGFGVVINYYYSGMDVWGRGTTVTVSS
VL: not shown
B14: C503 (antibody, V domains shown)
VH: QVQLQESGPGLVQPSGTLSLSCTVTGGSISSNNWWSWVRQSPVKGLEWIGEIYHNGNINYNPSLKSRVTMSIDKSKNHFSLKLSSVTAADTAVYYCARGDVLDWFDPWGQGTLVTVS
VL: QSALTQPASVSGSPGQSITFSCTGTSSDVGAYNYISWYQQHPGKAPKLMIYDVNNRPSGVSRRFSGSKSGNTASLTISGLQSEDEADYFCSSYAGNSTVRFGGGTKLTVL
B15: C085 (antibody, V domains shown)
VH: QVQLQESGPGLVKPSETLSLTCTVSGDSMSSYFWTWIRQPPGKGLECIGYFYPSGSTNYNPSLKSRVTISIDTSKNQFSLKLSSVTAADTAVYYCARLKQQLVGFGWFDPWGQGTLVTVSS
VL: QSVLTQPPSVSGAPGQRVTISCTGSSSNIGADYDVHWYQQFPGTAPKVLIYANTNRPSGVPERFSGSKSGTSASLAITGLQAEDEADYYCQSYDHSLNWVFGGGTKLTVL
B16: C086 (antibody, V domains shown)
VH: QVQLQESGPGLVKPSETLSLTCTVSGDSISTYFWAWIRQPPGRGLECIGSFFPSGSTYYNPSLKSRVTISVDTSKNQFSLKLNSVTAADTAVYYCARLKQQLVGFGWFDPWGQGSLVTVSS
VL: QSVLTQPPSVSGAPGQRVTISCTGSISNIGADYEVHWYVQFPGTAPKVLIYANTNRPSGVPERFSASKSGTSASLAITGLQAEDEADYYCQSYDHRLHWVFGGGTKLTVL
B17: C518 (antibody, V domains shown)
VH: EVQLVESGGGLIQPGGSLRLSCAASGITVSSNYMSWVRQAPGKGLEWVSVMYAGGSSFYADSVKGRFTISRDNSKNTLYLQMNSLRVEDTAVYYCARDLIALGVDVWGQGTTVTVSS
VL: DIQLTQSPSFLSASVGDRVTITCRASQGISSYLAWYQQKPGKAPKLLIYAASTLQSGVPSRFSGSGSGTEFTLTISSLQPEDFATYYCQLLNSYPMCSFGQGTKLEIK
B18: C519 (antibody, V domains shown)
VH: QVQLQESGPGLVKPSETLSLTCAVSGGSISSYYWSWIRQPPGKGLEWIGYIDTSGSTNYNPSLKSRVTMSVDTSKNQFSLNVNSVTAADTAVYFCGVCAGDCYAASVFDYRGQGTLVTVSS
VL: DIQMTQSPSSLSASVGDRVTITCQASQDIIFYLNWYQQKPGKAPKLLIYDASNLKTGVPSRFSGSGSGTDFAFTISSLQPEDIATYYCQQYDNLPLTFGGGTKVEIK
B19: C083 (antibody, V domains shown)
VH: EVQLVESGGGLVKPGGSLRLSCAASGFTFSSYSMNWVRQAPGKGLEWVSSISSSTSYIYYADSVKGRFTISRDNAKNSLYLQMNSLRAEDTAVYYCARERYGDNWGQGTLVTVSS
VL: QLVLTQSPSASASLGASVKLTCTLSSGHSSYAIAWHQQQPEKGPRYLMSLNSDGSHSKGDGIPDRFSGSSSGAERYLTISSLQSEDEADYYCQTWGPWVFGGGTKLTVL
B20: C088 (antibody, V domains shown)
VH: QVQLVQSGAEAKKPGASVKVSCKTSGYTFTNYFMHWVRQAPGQGPEWMGIIDSSDGGASYAQKFQGRVTMTRDTSTSTVYMELRSLKFEDTAVYYCARASTSTTSWSDALSLGSWGQGTLVTVSS
VL: QSVLTQPPSVSGAPGQRVTISCTGSSSNIGGGSVVHWYQQLPGTAPKLLIYANSNRPSGVPDRFSGSKSGTSASLAIAGLQAEDEADYYCQSWDNGLSASGVVFGGGTKLTVL
B21: C089 (antibody, V domains shown)
VH: QVQLVESGGGVVQPGRSLRLSCAASGFTFRTYAMHWVRQAPGKGLEWVAVILSDGNNKYYADSVKGRFTISRDNSKNTLYLQMNSLRAEDTAIFYCAREQEANYYDISGYYHWGESLGYWGQGTLVTVSS
VL: DIQLTQSPSFLSASVGDRVTITCRASQGISSYLAWYQQKPGKAPKLLIYGASTLQSGVPSRFSGSGSGTEFTLTISSLQPEDFASYYCQKVNSHPPGLTFGGGTKVEIK
B22: C090 (antibody, V domains shown)
VH: QVQLVESGGGVVQPGRSLRLSCAASGFTFRTYAMHWVRQAPGKGLEWVAVILSDGNNKYYADSVKGRFTISRDNSKNTLYLQMNSLRAEDTAIFYCAREQEANYYDISGYYHWGESLGYWGQGTLVTVSS
VL: DIQLTQSPSFLSASVGDRVTITCRASQGISSYLAWYQQKPGKAPKFLIYGASTLQSGVPSRFSGSGSGTEFTLTISSLQPEDFASYYCQKVNSYPPGLTFGGGTKVEIK

The first test has as its target SARS-CoV-2 spike protein receptor binding domain (RBD), wild type (SARS-CoV-2, UniProt P0DTC2 319-539). The test can be described thus: ELISA, RBD protein coated on plate, antibody titrated.
The molecule B1 registered a concentration for a half-maximal effect (EC50) of 1.31 ng/mL. In turn, B2 gave an EC50 of 16 ng/mL. On the same count and under the same terms, with B3 the figure was 4.44 ng/mL.

In the case of B4, the EC50 came to 6.48 ng/mL. B5 showed an EC50 of 5.72 ng/mL. B6 gave an EC50 of 5.6 ng/mL.

As for B7, the EC50 is 0.82 ng/mL. Turning to B8, the half-maximal effective concentration (EC50) was 1.33 ng/mL. As to B9, the response was half-maximal at 1.73 ng/mL (EC50). For B10, the response was half-maximal at 5.94 ng/mL (EC50). For the molecule B11, a half-maximal effect (EC50) was put at 1.68 ng/mL. Still for that read-out and setting: with B12 the figure was 9.08 ng/mL. The molecule B13 had an EC50 of 308 ng/mL. The same measure, in the same setting: for B14 the value was 6.55 ng/mL.

In the next test the target is SARS-CoV-2 spike protein receptor binding domain (RBD) (SARS-CoV-2, UniProt P0DTC2 319-539). In words: ELISA on coated RBD protein.
Regarding B15, the EC50 is 2.38 ng/mL.

With B16, the response was half-maximal at 3.01 ng/mL (EC50). On the same count and under the same terms, for B17 the value was 1.13 ng/mL; for B18, 1.07 ng/mL. As to B19, it took 25.1 ng/mL to reach a half-maximal effect (EC50). In turn, B20 showed an EC50 of 2.44 ng/mL.

Molecule B21 displayed an EC50 of 4.69 ng/mL.

Molecule B22 yielded an EC50 of 6.22 ng/mL.
